Assay results reported in patent publication US20210107989A1, “METHODS FOR TREATING CD73HI TUMORS” (CORVUS PHARMACEUTICALS, INC., priority 2017, published 2021).

Biological target: T1, CD73 on cells (MDA-MB-231 cells; human PBMC) (human, UniProt P21589 27-549)
T1 sequence (looked up): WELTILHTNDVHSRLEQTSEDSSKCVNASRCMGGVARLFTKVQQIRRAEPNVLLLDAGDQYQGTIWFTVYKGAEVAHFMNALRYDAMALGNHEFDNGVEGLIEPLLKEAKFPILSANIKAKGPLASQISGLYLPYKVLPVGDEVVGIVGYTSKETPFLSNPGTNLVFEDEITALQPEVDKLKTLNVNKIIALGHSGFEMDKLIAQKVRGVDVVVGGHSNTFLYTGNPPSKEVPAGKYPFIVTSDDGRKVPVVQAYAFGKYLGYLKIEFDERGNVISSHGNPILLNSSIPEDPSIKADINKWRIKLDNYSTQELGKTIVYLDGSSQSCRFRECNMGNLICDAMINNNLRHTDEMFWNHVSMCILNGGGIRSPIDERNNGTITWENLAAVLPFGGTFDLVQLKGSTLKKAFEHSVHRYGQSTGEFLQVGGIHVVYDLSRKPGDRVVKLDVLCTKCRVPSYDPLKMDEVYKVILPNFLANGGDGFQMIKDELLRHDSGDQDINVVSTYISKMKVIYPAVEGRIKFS
Assay: cell-based or functional assay

EC50, T cell proliferation (human PBMC with AMP): 189 nM
EC50, interferon gamma production (human PBMC with AMP): 137 nM
B1: CPX-006 (antibody, human IgG1, kappa, N297Q, V domains shown)
VH: QVQLVQSGAEVEKPGASVKVSCKASGYTFTSYWITWVRQAPGQGLEWMGDIYPGSGNTNYNEKFKTRVTITADKSTSTAYMELSSLRSEDTAVYYCAKEGGLTTEDYALDYWGQGTLVTVSS
VL: EIVLTQSPATLSLSPGERATLSCRASKNVSTSGYSYMHWYQQKPGQAPRLLIYLASNLESGIPPRFSGSGYGTDFTLTINNIESEDAAYYFCQHSRELPFTFGQGTKVEIKR
